The record followed here is patent publication US20230416378A1 (Boehringer Ingelheim, published 2023).

Experiment [1] concerns the target T1, Neuropilin-1 (Nrp1) endogenously expressed on human endothelial cells (HRMEC, HUVEC) (human, UniProt O14786 22-923). Put plainly: cell-based or functional assay.
The target of experiment [2] is T1, Neuropilin-1 (Nrp1) endogenously …. Briefly: cell-based or functional assay. This is another data set of the same source.
The target in experiment [3] is T2, human Nrp1 (soluble analyte in SPR and BLI) (human, UniProt O14786 22-856, limits assumed).
T2 construct: also called hNrp1; Human Nrp1A
Briefly: SPR, antibody captured on Protein A/G (GLM sensorchip), human Nrp1A as analyte 0-100 nM, 1:1 Langmuir fit. The protocol: The running buffer for this experiment and all dilutions (except where stated) were done in PBS-T-EDTA with 0.01% Tween20 [100 ul of 100% Tween20 was added to 2L of PBS-T-EDTA to make final Tween 20 concentration of 0.01%]. The GLM sensorchip was normalized and pre-conditioned as per the manufacturer's recommendations. The sensorchip was activated with equal mixture of EDC/s-NHS in the horizontal direction for 300 sec at a flow rate of 30 μl/min and immobilized with Recombinant Protein NG (60 μg/ml in 10 mM acetate pH 4.5) in the horizontal direction for 300 sec at a flowrate of 30 μl/min. The sensorchip was deactivated with 1M ethanolamine HCl in the horizontal direction for 300 sec at a flowrate of 30 μl/min. The sensorchip was stabilized with 18 sec of 0.85% phosphoric acid at a flowrate of 100 μl/min 3 times horizontally and 3 times vertically.
Human Nrp1A was prepared in PBS-T-EDTA buffer at concentrations of 100, 50, 25, 12.5, 6.25, and 0 nM. A PBS-T-EDTA buffer injection was used as a double reference for the kinetic data analysis. Each of the human Nrp1A solutions and PBS-T-EDTA buffer were injected simultaneously over the 6 horizontal channels for 5 min at a flow rate of 40 μL/min followed by 30 min dissociation phase. The surfaces were regenerated by an 18 sec injection of 0.85% Phosphoric acid at a flow rate of 100 μL/min followed by an injection of sec PBS-T-EDTA at a flow rate of 100 μL/min. The interspot (interactions with sensor surface) and blank (PBS-T-EDTA with 0.01% Tween20 or 0 nM analyte) were subtracted from the raw data.
(SPR reads the build-up and loss of mass on a sensor chip optically.)

Experiment [4] deals with T2, human Nrp1 (soluble analyte in SPR and …). Briefly: SPR, antibody captured on Protein A/G (GLM sensorchip), Nrp1 as analyte 0-100 nM, 1:1 Langmuir fit. The protocol:
(§1) The running buffer for this experiment and all dilutions (except where stated) were done in PBS-T-EDTA with 0.01% Tween20 [100 ul of 100% Tween20 was added to 2L of PBS-T-EDTA to make final Tween 20 concentration of 0.01%]. The GLM sensorchip was normalized and pre-conditioned as per the manufacturer's recommendations. […] The sensorchip was deactivated with 1M ethanolamine HCl in the horizontal direction for 300 sec at a flowrate of 30 μl/min. The sensorchip was stabilized with 18 sec of 0.85% phosphoric acid at a flowrate of 100 μl/min 3 times horizontally and 3 times vertically.
(§2) The baseline was stabilized by injecting PBS-T-EDTA for 60 sec at a flowrate of 100 μl/min horizontally with dissociation of 120 sec. The analyte was injected horizontally over the captured antibody for 300 sec at a flowrate of 30 μl/min and a dissociation for 1800 sec. The concentrations of the analytes were 0 nM, 6.25 nM, 12.5 nM, 25 nM, 50 nM, and 100 nM. The surface was regenerated by injecting 0.85% phosphoric acid for 18 sec at a flowrate of 100 μl/min one time horizontally and one time vertically. PBS-T-EDTA was injected for 60 sec at a flowrate of 100 μl/min one time vertically and one time horizontally.
(§3) The interspot (interactions with sensor surface) and blank (PBS-T-EDTA with 0.01% Tween20 or 0 nM analyte) were subtracted from the raw data.

The next experiment concerns the target T3, cyno Nrp1 (cyno, UniProt A0A2K5V5E7 24-858).
T3 construct: also called cyno-Nrp1A
The experiment is described as above. The protocol:
as §1, §2, §3

Another experiment addresses T4, rat Nrp1 (rat, UniProt Q9QWJ9 22-855, limits assumed).
T4 construct: also called rat Nrp1A
Described as above. The protocol: as §1, §2, §3

A further experiment deals with T5, mouse Nrp1 (mouse, UniProt P97333 22-856, limits assumed).
T5 construct: also called mouse Nrp1A
Described as above. The protocol:
as §1, §2, §3

The target in the next experiment is T6, gerbil Nrp1 (gerbil).
T6 construct: also called gerbil Nrp1A
The experiment is described as above. The protocol: as §1, §2, §3

T1 sequence (O14786 22-923 V179A limits assumed): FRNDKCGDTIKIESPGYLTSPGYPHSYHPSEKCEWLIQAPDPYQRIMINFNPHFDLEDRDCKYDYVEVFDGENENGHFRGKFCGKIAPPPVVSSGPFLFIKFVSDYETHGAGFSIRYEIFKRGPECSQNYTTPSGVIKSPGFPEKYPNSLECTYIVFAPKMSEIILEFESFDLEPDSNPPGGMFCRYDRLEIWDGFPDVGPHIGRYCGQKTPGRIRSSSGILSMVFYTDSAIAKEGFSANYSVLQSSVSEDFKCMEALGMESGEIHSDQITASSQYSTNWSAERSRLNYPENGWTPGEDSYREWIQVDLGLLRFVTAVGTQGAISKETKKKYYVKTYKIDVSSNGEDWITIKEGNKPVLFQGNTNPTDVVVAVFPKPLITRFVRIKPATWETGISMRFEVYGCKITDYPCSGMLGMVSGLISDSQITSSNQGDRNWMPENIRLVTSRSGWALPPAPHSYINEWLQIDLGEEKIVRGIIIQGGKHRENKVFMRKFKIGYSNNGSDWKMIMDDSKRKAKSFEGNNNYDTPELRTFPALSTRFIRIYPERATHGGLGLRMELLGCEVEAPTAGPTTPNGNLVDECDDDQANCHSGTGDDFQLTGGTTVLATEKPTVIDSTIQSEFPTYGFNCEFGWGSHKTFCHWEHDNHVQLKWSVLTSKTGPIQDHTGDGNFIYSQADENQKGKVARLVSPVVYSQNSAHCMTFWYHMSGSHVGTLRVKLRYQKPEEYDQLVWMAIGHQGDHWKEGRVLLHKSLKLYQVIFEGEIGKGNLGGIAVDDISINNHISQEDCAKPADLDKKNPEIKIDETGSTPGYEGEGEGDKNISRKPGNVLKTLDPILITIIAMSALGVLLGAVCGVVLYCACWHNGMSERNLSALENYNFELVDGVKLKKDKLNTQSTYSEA
T2 sequence (O14786 22-856 V179A limits assumed): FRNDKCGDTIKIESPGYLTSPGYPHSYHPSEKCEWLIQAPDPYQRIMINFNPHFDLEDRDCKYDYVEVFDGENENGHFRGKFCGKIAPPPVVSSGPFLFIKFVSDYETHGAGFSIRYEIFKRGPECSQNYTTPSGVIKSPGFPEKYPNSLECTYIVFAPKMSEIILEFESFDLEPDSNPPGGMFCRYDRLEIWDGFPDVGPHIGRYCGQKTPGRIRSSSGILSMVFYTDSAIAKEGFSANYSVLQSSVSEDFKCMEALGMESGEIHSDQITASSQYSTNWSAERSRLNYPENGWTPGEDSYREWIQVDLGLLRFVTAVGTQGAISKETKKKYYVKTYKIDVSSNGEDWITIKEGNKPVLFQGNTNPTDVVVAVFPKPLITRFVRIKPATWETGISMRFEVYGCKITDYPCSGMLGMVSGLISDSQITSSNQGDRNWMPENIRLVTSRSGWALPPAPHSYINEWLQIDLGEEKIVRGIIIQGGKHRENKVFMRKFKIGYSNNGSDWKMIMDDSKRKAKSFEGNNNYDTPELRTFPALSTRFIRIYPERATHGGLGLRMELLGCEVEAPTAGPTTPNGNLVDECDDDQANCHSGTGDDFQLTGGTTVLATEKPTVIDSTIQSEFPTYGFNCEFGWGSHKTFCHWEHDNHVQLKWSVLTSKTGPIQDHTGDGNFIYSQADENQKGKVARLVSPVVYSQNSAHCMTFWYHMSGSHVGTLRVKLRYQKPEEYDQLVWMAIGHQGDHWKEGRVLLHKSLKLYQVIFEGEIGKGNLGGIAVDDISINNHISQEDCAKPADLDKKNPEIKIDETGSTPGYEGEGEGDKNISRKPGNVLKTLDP
T4 sequence (Q9QWJ9 22-855 limits assumed): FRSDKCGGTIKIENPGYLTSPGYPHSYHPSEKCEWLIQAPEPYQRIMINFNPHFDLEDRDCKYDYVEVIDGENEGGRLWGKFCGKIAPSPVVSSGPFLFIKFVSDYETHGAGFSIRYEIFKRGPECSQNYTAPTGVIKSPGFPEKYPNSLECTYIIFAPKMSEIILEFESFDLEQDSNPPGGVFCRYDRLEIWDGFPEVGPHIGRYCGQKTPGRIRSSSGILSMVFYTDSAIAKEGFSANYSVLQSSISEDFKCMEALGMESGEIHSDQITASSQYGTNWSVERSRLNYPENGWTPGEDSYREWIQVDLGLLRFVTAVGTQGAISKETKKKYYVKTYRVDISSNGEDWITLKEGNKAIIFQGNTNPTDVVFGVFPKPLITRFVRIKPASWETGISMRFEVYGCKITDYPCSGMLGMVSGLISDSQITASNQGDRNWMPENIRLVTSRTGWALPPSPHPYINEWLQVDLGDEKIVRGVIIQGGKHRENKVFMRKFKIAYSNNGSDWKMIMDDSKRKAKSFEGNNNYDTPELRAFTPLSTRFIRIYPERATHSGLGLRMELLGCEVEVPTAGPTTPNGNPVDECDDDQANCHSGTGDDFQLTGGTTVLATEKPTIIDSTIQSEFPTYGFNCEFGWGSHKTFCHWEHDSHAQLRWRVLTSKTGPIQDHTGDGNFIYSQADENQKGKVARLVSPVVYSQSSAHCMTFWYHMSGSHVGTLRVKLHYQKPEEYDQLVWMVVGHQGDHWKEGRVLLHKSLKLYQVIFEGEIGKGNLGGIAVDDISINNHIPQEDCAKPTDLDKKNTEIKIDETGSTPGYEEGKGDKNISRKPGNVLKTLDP
T3 sequence (A0A2K5V5E7 entry or part of it): as the sequence (O14786 22-856 V179A limits assumed) above, with H77R, F78L, R79W, P96Q, L258V, V341I, M396L, I460V, L578P counted along it
T5 sequence (P97333 22-856 limits assumed): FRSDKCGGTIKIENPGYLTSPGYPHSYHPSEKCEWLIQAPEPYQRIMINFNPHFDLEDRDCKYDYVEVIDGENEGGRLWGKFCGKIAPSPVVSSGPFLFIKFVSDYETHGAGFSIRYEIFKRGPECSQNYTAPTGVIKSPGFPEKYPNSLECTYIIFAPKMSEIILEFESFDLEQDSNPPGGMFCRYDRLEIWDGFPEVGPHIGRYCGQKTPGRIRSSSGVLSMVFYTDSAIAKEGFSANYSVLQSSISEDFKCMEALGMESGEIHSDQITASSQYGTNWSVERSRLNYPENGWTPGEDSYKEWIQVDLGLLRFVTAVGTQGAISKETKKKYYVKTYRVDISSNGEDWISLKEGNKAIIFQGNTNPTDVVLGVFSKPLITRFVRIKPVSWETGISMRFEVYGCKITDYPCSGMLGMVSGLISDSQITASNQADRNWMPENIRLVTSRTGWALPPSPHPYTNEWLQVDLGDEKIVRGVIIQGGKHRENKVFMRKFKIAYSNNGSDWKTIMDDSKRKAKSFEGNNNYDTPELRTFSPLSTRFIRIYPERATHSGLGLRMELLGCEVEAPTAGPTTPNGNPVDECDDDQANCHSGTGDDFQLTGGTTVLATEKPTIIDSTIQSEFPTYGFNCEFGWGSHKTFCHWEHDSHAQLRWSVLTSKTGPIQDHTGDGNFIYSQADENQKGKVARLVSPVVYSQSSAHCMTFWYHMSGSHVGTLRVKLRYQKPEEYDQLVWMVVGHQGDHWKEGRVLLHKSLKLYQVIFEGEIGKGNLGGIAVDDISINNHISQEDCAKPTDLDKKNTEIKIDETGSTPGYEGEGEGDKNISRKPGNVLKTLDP

B1: YW64.3, comparative antibody directed against Nrp1A (antibody, human IgG1, kappa, L234A L235A, V domains shown)
VH: EVQLVESGGGLVQPGGSLRLSCAASGFSFSSEPISWVRQAPGKGLEWVSSITGKNGYTYYADSVKGRFTISADTSKNTAYLQMNSLRAEDTAVYYCARWGKKVYGMDVWGQGTLVTVSS
VL: DIQMTQSPSSLSASVGDRVTITCRASQSISSYLAWYQQKPGKAPKLLIYGASSRASGVPSRFSGSGSGTDFTLTISSLQPEDFATYYCQQYMSVPITFGQGTKVEIKR
notes: Made for comparison after WO2007056470; also called anti-Nrp1A (YW64.3); Clone YW64.3
A word on the Kd: it is a measure of binding affinity in units of concentration. Lower therefore signals higher affinity. For the molecule B1, the “Collapse assay IC50” value in experiment [1] is 0.056 nM. Further, the “VEGF induced cell integrity loss IC50” value in experiment [2] worked out at 12.6 nM. Further, the Kd in experiment [3] amounted to 11.3 nM.

B2: YW107.4.87, comparative antibody directed against Nrp1B (antibody, human IgG1, kappa, V domains shown)
VH: EVQLVESGGGLVQPGGSLRLSCAASGFTFSSYAMSWVRQAPGKGLEWVSQISPAGGYTNYADSVKGRFTISADTSKNTAYLQMNSLRAEDTAVYYCARGELPYYRMSKVMDVWGQGTLVTVSS
VL: DIQMTQSPSSLSASVGDRVTITCRASQYFSSYLAWYQQKPGKAPKLLIYGASSRASGVPSRFSGSGSGTDFTLTISSLQPEDFATYYCQQYLGSPPTFGQGTKVEIKR
notes: Made for comparison after WO2007056470; also called anti-Nrp1B (YW107.4.87)
On to B2, for which the “VEGF induced cell integrity loss IC50” value in experiment [2] stood at 13.7 nM. For the same molecule, the Kd in experiment [3] was 37.5 nM.

B3: Antibody of the invention (clone I), humanized anti-Nrp1A antibody (antibody, human IgG1, kappa, L234A L235A, V domains shown)
VH: EVQLLESGGGLVKPGGSLRLSCAASGFTFSSYAMSWVRQAPGKGLEWVSSISRTGYTYYAESVKGRFTISRDESKQTLYLQMQSLKTEDTAVYYCARVGTAFDYWGQGTLVTVSS
VL: not shown
notes: also called exemplary antibody of the invention; lead compound
With B3, the “Collapse assay IC50” value in experiment [1] was found to be 0.098 nM. For the same molecule, the “VEGF induced cell integrity loss IC50” value in experiment [2] worked out at 0.74 nM. For the same molecule, the Kd in experiment [4] is 11.1 nM; with cyno Nrp1, 15.2 nM; with rat Nrp1 it was 10.5 nM; in the experiment with mouse Nrp1 it was 7.7 nM; with gerbil Nrp1, 13.9 nM; in experiment [3], 11.1 nM.
